Changes are numbered by the printed parent chain.
B1: CLL-1 antibody clone M26 (antibody, V domains shown)
VH: EVQLQQSGPELVKPGASVKMSCKASGYTFTSYFIHWVKQKPGQGLEWIGFINPYNDGSKYNEKFKGKATLTSDKSSSTAYMELSSLTSEDSAVYYCTRDDGYYGYAMDYWGQGTSVTVSS
VL: DIQMTQSPSSLSASLGERVSLTCRATQELSGYLSWLQQKPDGTIKRLIYAASTLDSGVPKRFSGNRSGSDYSLTISSLESEDFADYYCLQYAIYPYTFGGGTKLEIKR
notes: Conjugated to saporin in the ADC assays
B2: CLL-1 antibody clone M31 (antibody, IgG2a, V domains shown)
VH: EVQLQQSGPELVKPGASVKMSCKASGYTFTSYVMHWVKQKPGQGLEWIGYINPYNDGTKYNEKFKGKATLTSDTSSSTAYMELNSLTSEDSAVYFCARPIYFDNDYFDYWGQGTTLKVSS
VL: TIVLTQSPASLAVSLGQRATISCRASESVDSYGNSFMHWYQQKPGQPPKLLIYLASNLESGVPARFSGSGSRTDFTLTIDPVEADDAATYYCQQNNYDPWTFGGGTKLEIK
B3: CLL-1 antibody clone M22 (antibody, IgG2a, V domains shown)
VH: QVQLQQPGAELVKPGASVKLSCKASGYTFTRYWMHWVKQRPGQGLEWIGNIDPSDTETHYNQQFKDKATLTVDKSSSTAYMQLSSLTSEDSAVYYCAIYYGNPSYYAMDYWGQGTSVTVSS
VL: DIVMTQSPSSLTVTAGEKVTMSCKSSQNLLNSGNQKKYLNWYQQKPGQPPKLLIYWASTRESGVPDRFTGSGSGTDFTLTISSVQAEDLAVYFCQNDYSYPFTFGAGTKLELK
B4: CLL-1 antibody clone M2 (antibody, IgG1, V domains shown)
VH: B1 VH with Q5R, I34M, S58T, S84N, G104D
VL: B1 VL with T26S, L29I, G31V, K60E, N65S, I93S
B5: CLL-1 antibody clone M5 (antibody, IgG2a, V domains shown)
VH: EVQLQQSGAELVRPGASVKLSCTASGFNIKDDYIHWVKQRPEQGLEWIGWIDPEKGDTAYASKFQDKATITSDTSSNTAYLQLSSLTSEDTAVYYCTLTGRFDYWGQGTTLTVSS
VL: DIVMSQSPSSLAVSVGEKVTMSCKSSQSLLYSSNQKNNLAWYQQKPGQSPKLLIYWASTRESGVPDRFTGSGSGTDFTLTISSVQAEDLAVYYCQQYYSYRTFGGGTKLEIK
B6: CLL-1 antibody clone G4 (antibody, IgG1, V domains shown)
VH: EVQLQQSGPELVKPGASMKISCKASGYSFTGYTMNWVKQSHEKNLEWIGPINPYNDGTIYNPNFKGKATLTVDKASSTAYMELLSLTSDDPAVYYCARTDDYDDYTMDYWGQGTSVTVSS
VL: EIQMTQTPSSLSASLGDRVTISCRASHDISNYLNWYQQKPDGTLKLLIYYTSRLHSGVPSRFSGSGSGTDYSLTISNLEQEDIATYFCQQGKTLLWTFGGGTKLEIK
notes: also called 31.G4; 31G4
B7: CLL-1 antibody clone M29 (antibody, IgG1, V domains shown)
VH: EVQLQQSGPELVKPGASVKMSCKASGYIFTSYVMYWVKQKPGQGLEWIGYINPYNDGTKYNEKFKGKATLTSDKSSSTAYMELSSLTSEDSAVYYCARYYDYDYYFDYWGQGTTLTVSS
VL: DIQMTQSPSSLSASLGGKVTITCKASQDINKYIAWYQHKPGKGPRLLIHYTSTLQPGIPSRFSGSGSGRDYSFSISNLEPEDIATYYCLQYDYLWTFGGGTKLEIK
B8: CLL-1 antibody clone G12 (antibody, IgG1, V domains shown)
VH: QVQLQQPGAELVKPGASMKMSCKASGYTFPSSNIHWLKQTPGQGLEWIGVIYPGNGDTSYNQKFKDKATLTTDKSSSTAYMQLSSLTSEDSAIYFCARVYNWHFDVWGAGTTVTVSS
VL: NIVLTQSPASLAVSLGQRATISCRASESVDGYGDIFMLWYQQKPGQPPKLLIYFASNLESGVPARFSGSGSRTDFTLTIDPVEADDAATYYCQQNNEDPYTFGGGTKLEIKR
B9: human chimeric CLL-1 antibody ChiM26 (antibody, V domains shown)
VH: B1 VH
VL: B1 VL
B10: human chimeric CLL-1 antibody ChiG4 (antibody, V domains shown)
VH: B6 VH
VL: B6 VL
B11: human chimeric CLL-1 antibody ChiM31 (antibody, V domains shown)
VH: B2 VH
VL: B2 VL

Target: T1, C lectin domain of CLL-1 expressed in 293T cells (human, UniProt Q5QGZ9 140-249)
T1 sequence: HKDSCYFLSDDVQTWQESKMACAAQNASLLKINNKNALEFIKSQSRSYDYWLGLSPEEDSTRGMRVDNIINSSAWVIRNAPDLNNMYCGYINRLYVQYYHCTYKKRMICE
Test: binding to 293T cells expressing the C lectin domain of CLL-1

B1: no binding.
B2: no binding.

Target: T2, human C type Lectin Like molecule 1 (CLL-1) on cells (human, UniProt Q5QGZ9 1-265)
T2 construct: also called hCLL-1; CLEC12A
T2 sequence: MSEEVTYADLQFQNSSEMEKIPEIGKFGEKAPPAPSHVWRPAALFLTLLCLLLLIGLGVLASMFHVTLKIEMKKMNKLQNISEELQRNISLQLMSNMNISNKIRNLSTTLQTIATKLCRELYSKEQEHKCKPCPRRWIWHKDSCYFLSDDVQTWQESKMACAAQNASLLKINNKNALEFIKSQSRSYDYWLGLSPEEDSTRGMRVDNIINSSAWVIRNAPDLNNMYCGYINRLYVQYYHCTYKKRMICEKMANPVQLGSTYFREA
Test: FACS, OCI AML-5 AML cell line

Going from B3 to B4, the “% of live cells with antibody binding” value rises from 57.6% to 96.3%.

Compared with B5, B6 is higher in “% of live cells with antibody binding” value: 2.3% for the first, 83.2% for the second.

First: B2
Second: B7
The “% of live cells with antibody binding” value of the first is higher: 89.7% for the first, 87.6% for the second.

Target: T2, human C type Lectin Like molecule 1 …
Test: cell-based or functional assay

Compared with B1, B4 is lower in “ADC EC50 (pM), saporin-conjugated antibody, cell viability” value (“ADC EC50 (pM)” for short): 90.2 pM for the first, 20.9 pM for the second.

Going from B5 to B6, the “ADC EC50 (pM)” value falls from 150 pM to 44.4 pM.

Going from B2 to B7, the “ADC EC50 (pM)” value rises from 34.3 pM to 91.4 pM.

In the case of B8, the “ADC EC50 (pM)” value is reported as 19.4 pM.

Target: T2, human C type Lectin Like molecule 1 …
Test: cell-based or functional assay
Remark: another data set of the same source

B9 and B10 are within 1.5-fold of each other in “ADCC EC50 (Promega ADCC Reporter Assay)” value: 0.079 µg/mL for the first, 0.105 µg/mL for the second.

In the case of B11, the “ADCC EC50 (Promega ADCC Reporter Assay)” value is reported as 0.143 µg/mL.

Target: T2, human C type Lectin Like molecule 1 …
Test: FACS, primary AML patient cells, Group 1

B4 and B6 are the same in “positive patient samples / total tested” value: 2 of 2 patient samples for the first, 2 of 2 patient samples for the second.

In the case of B8, the “positive patient samples / total tested” value is reported as 2 of 2 patient samples.

Target: T2, human C type Lectin Like molecule 1 …
Test: FACS, recombinant 293 cells expressing human CLL-1

Going from B3 to B4, the “% of live cells with antibody binding” value rises from 97% to 99.9%.

Going from B5 to B2, the “% of live cells with antibody binding” value rises from 1.1% to 76%.

B7 and B8 are the same in “% of live cells with antibody binding” value: 99.9% for the first, 99.9% for the second.

Target: T3, biotinylated CLL-1 (hCLL-1) (human, UniProt Q5QGZ9 65-265, limits assumed, biotinylated (site not stated))
T3 sequence: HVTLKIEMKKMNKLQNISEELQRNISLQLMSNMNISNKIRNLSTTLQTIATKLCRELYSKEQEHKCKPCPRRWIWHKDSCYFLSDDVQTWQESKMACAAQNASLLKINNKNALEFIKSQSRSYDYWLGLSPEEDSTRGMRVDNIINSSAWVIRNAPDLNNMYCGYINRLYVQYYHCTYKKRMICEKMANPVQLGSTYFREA
Test: biotinylated CLL-1 on streptavidin sensor tips; antibody at 10, 30, 90 ug/ml; global 1:1 fit

Compared with B3, B1 is 1.8-fold lower in Kd: 0.388 nM for the first, 0.214 nM for the second. The second binds more tightly here.

Going from B4 to B5, the Kd rises from 0.205 nM to 0.553 nM (2.7-fold).

First: B6
Second: B2
The Kd of the first is 12-fold lower: 0.053 nM for the first, 0.611 nM for the second.

Compared with B7, B8 is 21-fold lower in Kd: 1.48 nM for the first, 0.07 nM for the second.

Target: T2, human C type Lectin Like molecule 1 …
Test: FACS, HL60 AML cell line

Going from B3 to B4, the “% of live cells with antibody binding” value rises from 37.2% to 90.3%.

Going from B5 to B6, the “% of live cells with antibody binding” value rises from 1.7% to 83.2%.

Going from B2 to B7, the “% of live cells with antibody binding” value falls from 91% to 84.6%.

In the case of B8, the “% of live cells with antibody binding” value is reported as 88.3%.

Target: T2, human C type Lectin Like molecule 1 …
Test: cell-based or functional assay
Remark: another data set of the same source

Compared with B3, B5 is higher in “CDC (% killing), 10 ug/mL antibody, primary AML cells” value: 14.5% for the first, 17.9% for the second.

In the case of B2, the “CDC (% killing), 10 ug/mL antibody, primary AML cells” value is reported as 12.1%.

— patent publication US20130295118A1 (CELLERANT THERAPEUTICS, published 2013)
